# Measured values from patent publication US20230140200A1, “COMPOSITIONS AND METHODS FOR DETECTING CELLS UNDERGOING FERROPTOSIS USING AN ANTIBODY” (THE TRUSTEES OF COLUMBIA UNIVERSITY IN THE CITY OF NEW YORK, priority 2020, published 2023).
# “Also recorded” adds a separate entry of the source.
# B1: 3F3-FMA: Murine monoclonal IgG1 raised against ferroptotic membrane fractions; antigen is transferrin receptor protein 1 (TfR1) (antibody, V domains shown)
# VH: EVLLQQSGTELVRPGALVKLSCKASGFNIQDLYIHWVKQRPEQGLEWIGWIDPETDNTIYDPKFQGKASITADTSSNTAYLQLSSLTSEDTAMYYCSTGLLQWYFDVWGAGTAVTVSS
# VL: DIVMTQSPSSLAMSIGQKVTMRCKSSQSLLNSYNQKNCLAWYQQKPGQSPKLLLYFVSTRESGVPDRFIGSGSGTDFTLTISSVQAEDLADYFCQQHYSTPLTFGAGTKLELK
# How the values were obtained:
# [1] = test system: A-673 cells; test: Immunofluorescence in A-673 cells; format: cell-based, human; settings: 1 μM RSL3, 4 h
# [2] = test system: HT-1080 cells; test: Flow cytometry staining without permeabilization; format: cell-based, human; settings: vs DMSO
# [3] = target: T1, mouse TfR1 (Mus musculus, UniProt Q62351); test: Staining of mouse glioblastoma paraffin-embedded tissue; settings: paraffin-embedded GBM tissue
# T1 construct: We evaluated 3F3-FMA staining in mouse glioblastoma (GBM) paraffin-embedded tissue samples; from tissue; host or cells: mouse glioblastoma (murine glioma model, c57/B6 mice), paraffin-embedded brain sections
# Description: All procedures were performed according to the Columbia University Medical Center Institutional Animal Care and Use Committee. Murine glioma cell lines were created from tumor bearing mice. These tumors were generated by injection of a PDGF-IRES-Cre retrovirus into the subcortical white matter of mice with floxed PTEN and/or p53 (Sonabend et al., 2013). After mice reached end stage, the tumors were dissociated and primary cell cultures were created. These cells harbored the specific mutations of the original tumors, and could be re-injected to form gliomas in c57/B6 mice with high fidelity. Briefly, mice between the ages of 6-8 weeks received 50,000 murine glioma cells through stereotactic injection after being anesthetized with a ketamine/xylazine cocktail (87.5 mg/12.5 mg w/w). After cessation of toe-pinch reflex, the scalp was shaved and cleaned with serial use of betadine and 70% ethanol swabs. An incision was made and the skull was exposed. A burr hole was created, 2 mm anterior, 2 mm lateral and 2 mm deep to the right of the bregma. The cells were injected into the subcortical white matter over a period of 3 minutes (0.333 μL/min). Once the injection ceased, the needle was left in place for 1 minute before being slowly withdrawn. After tumor developed, brains were harvested and fixed in 4% paraformaldehyde and embedded in paraffin. 5 micron sections were made for staining.
# [4] = test system: B cell lymphoma mouse xenograft tumor tissue (SU-DHL-6 cells); test: Staining of B cell lymphoma mouse xenograft tumor tissue sections; settings: 40 mg/kg IKE once daily IP for 14 days
# Description: Tumor tissues were fixed in 4% paraformaldehyde (PFA) for 24 h at 4° C. followed by washing with PBS three times. The tissues were perfused in 30% sucrose for 24 h at 4° C. for cryo-protection. The samples were embedded in OCT cryostat sectioning medium, and then moved directly into a cryostat. After equilibration of temperature, frozen tumor tissues were cut into 5 μm thick sections. Tissue sections were mounted on to poly-L-lysine coated slides by placing the cold sections onto warm slides. Slides were stored at −80° C. until staining. For staining, slides were warmed to room temperature followed by washing with PBS twice. A hydrophobic barrier pen was used to draw a circle on each slide. The slides were permeabilized with PBS with 0.4% Triton X-100 (PBT) twice before non-specific-binding blocking by incubating the sections with 10% goat serum (ThermoFisher 50197Z) for 30 min at room temperature. […] All images were captured on a Zeiss LSM 800 confocal microscope at Plan-Apochromat 63×/1.40 Oil DIC objective with constant laser intensity for all analyzed samples. The intensity above threshold of the fluorescent signal of the bound antibodies was analyzed using NIH ImageJ software (ImageJ, RRID:SCR_003070). Data were expressed as fold change comparing with the vehicle. […]
# [5] = test system: SK-LMS-1 cells; test: Immunofluorescence in SK-LMS-1 cells; format: cell-based, human; settings: 1 μM RSL3, 4 h
# [6] = test system: mouse liver tissues; test: Staining of normal mouse liver frozen tissue
# Description: FIGS. 12A-12B show 3F3 FMA staining in human Huntington's disease brains and mouse tissues. In FIG. 12A, human HD and control brain tissues were fixed in 4% PFA for 24 h, perfused in 30% sucrose for 24 h, and stained with DAPI (nuclei, blue) and 3F3 FMA (red). The expression level of TfR1 is low. There was no difference between HD and control groups. In FIG. 12B, mouse liver tissues and mouse GBM tissues were fixed and stained with DAPI (nuclei, blue) and 3F3 FMA (red). 3F3 FMA was able to recognize mouse TfR1.
# T1 sequence (Q62351 whole entry): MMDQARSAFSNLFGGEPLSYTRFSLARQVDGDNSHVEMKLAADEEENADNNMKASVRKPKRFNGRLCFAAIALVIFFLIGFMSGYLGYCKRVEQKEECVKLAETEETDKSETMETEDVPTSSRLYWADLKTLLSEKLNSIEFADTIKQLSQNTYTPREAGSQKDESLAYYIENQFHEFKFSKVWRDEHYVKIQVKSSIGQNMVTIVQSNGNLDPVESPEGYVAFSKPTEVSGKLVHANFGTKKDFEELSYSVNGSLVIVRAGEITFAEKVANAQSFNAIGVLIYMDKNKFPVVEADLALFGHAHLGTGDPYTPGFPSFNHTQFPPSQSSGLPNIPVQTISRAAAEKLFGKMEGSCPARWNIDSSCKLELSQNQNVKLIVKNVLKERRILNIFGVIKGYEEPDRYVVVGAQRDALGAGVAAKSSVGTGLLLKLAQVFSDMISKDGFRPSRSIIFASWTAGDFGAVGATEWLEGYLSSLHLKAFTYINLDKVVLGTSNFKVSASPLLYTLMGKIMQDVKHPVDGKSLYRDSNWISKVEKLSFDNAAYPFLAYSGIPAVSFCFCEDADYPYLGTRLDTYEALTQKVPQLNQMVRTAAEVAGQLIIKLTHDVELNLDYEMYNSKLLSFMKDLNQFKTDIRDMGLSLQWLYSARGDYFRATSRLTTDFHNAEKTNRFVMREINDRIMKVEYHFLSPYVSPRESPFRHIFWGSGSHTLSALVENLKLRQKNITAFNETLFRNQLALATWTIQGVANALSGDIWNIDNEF
molecule,measurement,setting,value
B1,3F3-FMA staining upon ferroptosis induction,[1],concentrated at the cell boundaries and became brighter
same,antibody staining intensity by flow cytometry in RSL3-treated cells,"[2]; 1 μM RSL3, 4 h",increased intensities
same,antibody staining intensity by flow cytometry in STS-induced apoptosis,"[2]; 1 μM STS, 6 h",decreased intensity; also recorded: decreased intensities
same,recognition of TfR1 in tumor samples,[3],able to recognize mouse TfR1 protein
same,antibody staining intensity in IKE-treated vs vehicle tumor tissue,[4],did not detect its antigen; also recorded: no difference
same,3F3-FMA staining upon ferroptosis induction,[5],concentrated at the cell boundaries and became brighter
same,staining signal in normal liver tissue,[6],robust signal
